Laboratory results as given in paper PMC8659020, “Ferrocene-Labelled Electroactive Aptamer-Based Sensors (Aptasensors) for Glycated Haemoglobin”.

Biological target: Haemoglobin (Hb) (UniProt P69905;P68871 2-142;2-147)
Assay: differential pulse voltammetry (electrochemical aptasensor); aptamer immobilized on electrode; DPV in 10 mM Tris-HCl (stated for clinical-range test; pH and temperature not given); EIS in 5 mM [Fe(CN)6]3-/4-, 0.1 M KCl; aptamer loaded in 5 mM MgCl2, 10 mM Tris-HCl, electrodes rinsed with 0.1 M PBS pH 6.5, 1 mM MgCl2
Settings: protein: commercial; chain copies: 2;2; label: 5' ferrocene; single strand, Mfold-predicted secondary structure

Chain of Haemoglobin (Hb) (P69905 2-142, chain 1 of 2): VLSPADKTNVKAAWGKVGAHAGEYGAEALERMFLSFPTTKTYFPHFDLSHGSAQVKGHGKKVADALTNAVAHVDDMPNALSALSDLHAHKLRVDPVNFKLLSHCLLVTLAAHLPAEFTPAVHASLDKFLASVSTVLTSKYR
Chain of Haemoglobin (Hb) (P68871 2-147, chain 2 of 2): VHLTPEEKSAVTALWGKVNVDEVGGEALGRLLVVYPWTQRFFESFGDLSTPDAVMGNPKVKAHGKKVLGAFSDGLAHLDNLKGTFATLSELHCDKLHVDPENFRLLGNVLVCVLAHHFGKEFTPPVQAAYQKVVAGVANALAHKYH

B1: Hb aptamer (II) (ssDNA)
DNA: ACGCACACCAGAGACAAGTAGCCCCCCAAACGCGGCCACGGAACGCAGCACCTCCATGGC
modifications: 5' ferrocene; 3' thiol (SH), immobilized on gold screen-printed electrode
- Kd: 95.9 ± 40 µg/mL
